Biological target: actin filaments (UniProt P68139)
Assay: immunogold electron microscopy

Substance “Cap Z(36/32) (from UniProt P13127 1-286; P14315 1-277) (complex)” has a percent of filaments with gold label at the barbed end (immune) of 17.4%.
